The values below come from patent US5145837A, “Treatment of arthritis” (Sandoz Ltd., priority 1988, dated 1992).

The nature of one series: Tolerability. The following applies: in vivo.
In series [1] the test system is prostaglandin E2 production in mouse calvariae. Put plainly: Inhibitory effect on prostaglandin E2 production stimulated by PTH in organ cultures of mouse calvariae. Format: cell-based. How it is done: Organ cultures of mouse calvariae are first prepared according to the principles of U. L. Ivey, D. R. Wright, A. H. Tashjian, J. Clin. Invest. 58:1327 (1976) as follows:
Frontal and parietal bones are dissected from neonatal (5 to 6-day-old) mice (strain CD-1), split along the sagittal suture, and cultured in 2 ml of BGJ-medium containing 1 mg/ml bovine serum albumin, penicillin and streptomycin in 35 mm plastic tissue culture wells. […]
The cells are cultured for another 48 hours. During the entire culture period, the multi-well dishes are shaken on a rocker platform (15 oscillations/min) in a humidified atmosphere of 5% CO2 in air at 37° C. The calvaria-conditioned medium is harvested and placed at 4° C.
An aliquot of the medium is then assayed for prostaglandin E2 using a standard radioimmunossay. Prostaglandin E2 levels are reduced.

Consider `C[C@@H](O)[C@@H]1NC(=O)[C@H](CCCCN)NC(=O)[C@@H](Cc2c[nH]c3ccccc23)NC(=O)[C@H](Cc2ccccc2)NC(=O)[C@@H](NC(=O)[C@H](N)Cc2ccccc2)CSSC[C@@H](C(=O)N[C@H](CO)[C@@H](C)O)NC1=O` [Compound IVa], for which the tolerated dose in the series “Tolerability” is ≥ 1 mg.

B1: PTH: parathyroid hormone used to stimulate prostaglandin E2 production (protein, UniProt P01270 32-115, looked up)
Parathyroid hormone: SVSEIQLMHNLGKHLNSMERVEWLRKKLQDVHNFVALGAPLAPRDAGSQRPRKKEDNVLVESHEKSLGEADKADVNVLTKAKSQ
modifications: Parathyroid hormone
notes: parathyroid hormone used to stimulate prostaglandin E2 production
For the molecule B1, the figures for the PGE2 synthesis in series [1] (PTH 10^-7 M alone (so in the source)) and in series [1] (PTH 10^-10 M alone) were 340 pg/mL and 50 pg/mL, respectively.
